test system: Escherichia coli TOP10; test: shrunken log2 fold change of peptide-encoding DNA abundance (4.5 h post-induction vs induction); higher = less antimicrobial activity (less host growth inhibition); conditions: time post-induction: 4.5 h; library: site-saturation at positions 5, 18, 19, 20
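Further: peptides expressed intracellularly from a pBAD plasmid library in pooled LB shake-flask culture, induced with 0.3% L-arabinose, DNA abundance read by NGS, three biological replicates, DESeq2 with apeglm shrinkage.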

Row | Sequence | shrunken log2 fold change
1 | RRIRTRPPRLPRPRPRPRQLPRP | 0.187
2 | RRIRTRPPRLPRPRPRPRSDPRP | 0.0841
3 | RRIRTRPPRLPRPRPRPRSLPRP | 0.19
4 | RRIRTRPPRLPRPRPRPRSMPRP | 0.0542
5 | RRIRTRPPRLPRPRPRPRSNPRP | 0.186
6 | RRIRTRPPRLPRPRPRPRSTPRP | 0.377
7 | RRIRTRPPRLPRPRPRPRVMPRP | 0.0867
8 | RRIRTRPPRLPRPRPRPRVRPRP | 2.2
9 | RRIRTRPPRLPRPRPRPRWIPRP | 0.0272
10 | RRIRTRPPRLPRPRPRPSAEPRP | 0.363
11 | RRIRTRPPRLPRPRPRPSAKPRP | 0.227
12 | RRIRTRPPRLPRPRPRPSCAPRP | -0.127
13 | RRIRTRPPRLPRPRPRPSCHPRP | -0.783
14 | RRIRTRPPRLPRPRPRPSCWPRP | 0.00851
15 | RRIRTRPPRLPRPRPRPSDYPRP | -0.278
16 | RRIRTRPPRLPRPRPRPSFEPRP | -0.328
17 | RRIRTRPPRLPRPRPRPSHKPRP | -0.421
18 | RRIRTRPPRLPRPRPRPSHTPRP | -0.0162
19 | RRIRTRPPRLPRPRPRPSIRPRP | -0.183
20 | RRIRTRPPRLPRPRPRPSKCPRP | -0.535
21 | RRIRTRPPRLPRPRPRPSLQPRP | -0.0953
22 | RRIRTRPPRLPRPRPRPSMVPRP | -0.0429
23 | RRIRTRPPRLPRPRPRPSNDPRP | -0.557
24 | RRIRTRPPRLPRPRPRPSNKPRP | -0.916
25 | RRIRTRPPRLPRPRPRPSPCPRP | -0.0588

Row | Sequence | shrunken log2 fold change
26 | RRIRTRPPRLPRPRPRPSQFPRP | -0.302
27 | RRIRTRPPRLPRPRPRPSRCPRP | 0.061
28 | RRIRTRPPRLPRPRPRPSRPPRP | 0.202
29 | RRIRTRPPRLPRPRPRPSSHPRP | -0.669
30 | RRIRTRPPRLPRPRPRPSSNPRP | -0.589
31 | RRIRTRPPRLPRPRPRPTAGPRP | 0.59
32 | RRIRTRPPRLPRPRPRPTAKPRP | -0.143
33 | RRIRTRPPRLPRPRPRPTALPRP | 0.0207
34 | RRIRTRPPRLPRPRPRPTASPRP | 0.0344
35 | RRIRTRPPRLPRPRPRPTAYPRP | -0.0821
36 | RRIRTRPPRLPRPRPRPTELPRP | -0.0329
37 | RRIRTRPPRLPRPRPRPTERPRP | 0.36
38 | RRIRTRPPRLPRPRPRPTFGPRP | 0.0406
39 | RRIRTRPPRLPRPRPRPTFLPRP | -0.0937
40 | RRIRTRPPRLPRPRPRPTFSPRP | -0.169
41 | RRIRTRPPRLPRPRPRPTGHPRP | 0.131
42 | RRIRTRPPRLPRPRPRPTGRPRP | 0.099
43 | RRIRTRPPRLPRPRPRPTHCPRP | 0.0158
44 | RRIRTRPPRLPRPRPRPTHDPRP | 0.139
45 | RRIRTRPPRLPRPRPRPTHQPRP | 0.926
46 | RRIRTRPPRLPRPRPRPTIDPRP | -0.319
47 | RRIRTRPPRLPRPRPRPTIMPRP | -0.597
48 | RRIRTRPPRLPRPRPRPTIPPRP | -0.198
49 | RRIRTRPPRLPRPRPRPTMRPRP | 0.867
50 | RRIRTRPPRLPRPRPRPTQKPRP | -0.0787

Row | Sequence | shrunken log2 fold change
51 | RRIRTRPPRLPRPRPRPTQWPRP | 0.364
52 | RRIRTRPPRLPRPRPRPTQYPRP | -0.207
53 | RRIRTRPPRLPRPRPRPTRVPRP | 0.214
54 | RRIRTRPPRLPRPRPRPTRWPRP | 0.301
55 | RRIRTRPPRLPRPRPRPTSIPRP | -0.195
56 | RRIRTRPPRLPRPRPRPTSPPRP | 0.119
57 | RRIRTRPPRLPRPRPRPTSRPRP | 0.141
58 | RRIRTRPPRLPRPRPRPTTEPRP | -0.16
59 | RRIRTRPPRLPRPRPRPTVFPRP | -0.14
60 | RRIRTRPPRLPRPRPRPTVWPRP | -0.049
61 | RRIRTRPPRLPRPRPRPTYEPRP | -0.174
62 | RRIRTRPPRLPRPRPRPTYIPRP | -0.603
63 | RRIRTRPPRLPRPRPRPVACPRP | -0.0699
64 | RRIRTRPPRLPRPRPRPVARPRP | 2.14
65 | RRIRTRPPRLPRPRPRPVCLPRP | -0.398
66 | RRIRTRPPRLPRPRPRPVCPPRP | 0.186
67 | RRIRTRPPRLPRPRPRPVFLPRP | -0.56
68 | RRIRTRPPRLPRPRPRPVFTPRP | -0.105
69 | RRIRTRPPRLPRPRPRPVGMPRP | -0.388
70 | RRIRTRPPRLPRPRPRPVGSPRP | -0.243
71 | RRIRTRPPRLPRPRPRPVHSPRP | -0.0193
72 | RRIRTRPPRLPRPRPRPVHWPRP | 0.842
73 | RRIRTRPPRLPRPRPRPVICPRP | -0.157
74 | RRIRTRPPRLPRPRPRPVKVPRP | 0.00854
75 | RRIRTRPPRLPRPRPRPVLDPRP | -0.0579

Row | Sequence | shrunken log2 fold change
76 | RRIRTRPPRLPRPRPRPVLVPRP | -0.106
77 | RRIRTRPPRLPRPRPRPVMTPRP | -0.14
78 | RRIRTRPPRLPRPRPRPVQCPRP | 0.00249
79 | RRIRTRPPRLPRPRPRPVQGPRP | 0.165
80 | RRIRTRPPRLPRPRPRPVQQPRP | 0.0144
81 | RRIRTRPPRLPRPRPRPVRQPRP | 0.264
82 | RRIRTRPPRLPRPRPRPVRRPRP | 0.38
83 | RRIRTRPPRLPRPRPRPVTWPRP | -0.0681
84 | RRIRTRPPRLPRPRPRPVWTPRP | 0.03
85 | RRIRTRPPRLPRPRPRPVYIPRP | -0.6
86 | RRIRTRPPRLPRPRPRPVYPPRP | -0.00118
87 | RRIRTRPPRLPRPRPRPWAKPRP | 0.057
88 | RRIRTRPPRLPRPRPRPWCMPRP | -0.0742
89 | RRIRTRPPRLPRPRPRPWCWPRP | -0.0632
90 | RRIRTRPPRLPRPRPRPWDTPRP | -0.15
91 | RRIRTRPPRLPRPRPRPWEDPRP | 0.0242
92 | RRIRTRPPRLPRPRPRPWGLPRP | 0.00838
93 | RRIRTRPPRLPRPRPRPWHLPRP | -0.0134
94 | RRIRTRPPRLPRPRPRPWINPRP | 0.0189
95 | RRIRTRPPRLPRPRPRPWISPRP | -0.0102
96 | RRIRTRPPRLPRPRPRPWKSPRP | -0.0257
97 | RRIRTRPPRLPRPRPRPWNPPRP | 0.0296
98 | RRIRTRPPRLPRPRPRPWNSPRP | -0.0351
99 | RRIRTRPPRLPRPRPRPWNYPRP | -0.567
100 | RRIRTRPPRLPRPRPRPWPFPRP | -0.0102

Row | Sequence | shrunken log2 fold change
101 | RRIRTRPPRLPRPRPRPWQAPRP | 0.177
102 | RRIRTRPPRLPRPRPRPWQCPRP | 0.00408
103 | RRIRTRPPRLPRPRPRPWQQPRP | -0.0121
104 | RRIRTRPPRLPRPRPRPWREPRP | -0.00743
105 | RRIRTRPPRLPRPRPRPWSDPRP | -0.0131
106 | RRIRTRPPRLPRPRPRPWSGPRP | -0.187
107 | RRIRTRPPRLPRPRPRPWTHPRP | -0.0143
108 | RRIRTRPPRLPRPRPRPWTKPRP | -0.00433
109 | RRIRTRPPRLPRPRPRPWTRPRP | 0.064
110 | RRIRTRPPRLPRPRPRPWVHPRP | -0.0467
111 | RRIRTRPPRLPRPRPRPWWDPRP | 0.132
112 | RRIRTRPPRLPRPRPRPWWVPRP | -0.0227
113 | RRIRTRPPRLPRPRPRPYAEPRP | -0.612
114 | RRIRTRPPRLPRPRPRPYANPRP | -0.00264
115 | RRIRTRPPRLPRPRPRPYAQPRP | -0.495
116 | RRIRTRPPRLPRPRPRPYCIPRP | -0.205
117 | RRIRTRPPRLPRPRPRPYDHPRP | -0.097
118 | RRIRTRPPRLPRPRPRPYDWPRP | -0.696
119 | RRIRTRPPRLPRPRPRPYFLPRP | -1.18
120 | RRIRTRPPRLPRPRPRPYGTPRP | -0.347
121 | RRIRTRPPRLPRPRPRPYIDPRP | -0.132
122 | RRIRTRPPRLPRPRPRPYIKPRP | -1.22
123 | RRIRTRPPRLPRPRPRPYIPPRP | -0.462
124 | RRIRTRPPRLPRPRPRPYIVPRP | -1.04
125 | RRIRTRPPRLPRPRPRPYKCPRP | -0.372

Row | Sequence | shrunken log2 fold change
126 | RRIRTRPPRLPRPRPRPYKGPRP | -0.0116
127 | RRIRTRPPRLPRPRPRPYKIPRP | -0.15
128 | RRIRTRPPRLPRPRPRPYNVPRP | -0.297
129 | RRIRTRPPRLPRPRPRPYPMPRP | -1.43
130 | RRIRTRPPRLPRPRPRPYPNPRP | -0.414
131 | RRIRTRPPRLPRPRPRPYQPPRP | -0.0681
132 | RRIRTRPPRLPRPRPRPYTQPRP | -0.434
133 | RRIRTRPPRLPRPRPRPYVAPRP | -0.562
134 | RRIRTRPPRLPRPRPRPYVFPRP | -0.394
135 | RRIRTRPPRLPRPRPRPYVRPRP | 0.0143
136 | RRIRVRPPRLPRPRPRPAADPRP | 0.437
137 | RRIRVRPPRLPRPRPRPAAQPRP | 0.433
138 | RRIRVRPPRLPRPRPRPAAYPRP | 0.00526
139 | RRIRVRPPRLPRPRPRPACHPRP | 0.0396
140 | RRIRVRPPRLPRPRPRPACIPRP | -0.0537
141 | RRIRVRPPRLPRPRPRPAFLPRP | 0.0548
142 | RRIRVRPPRLPRPRPRPAFMPRP | -0.352
143 | RRIRVRPPRLPRPRPRPAGIPRP | 0.165
144 | RRIRVRPPRLPRPRPRPAGRPRP | 1.22
145 | RRIRVRPPRLPRPRPRPAHTPRP | 0.109
146 | RRIRVRPPRLPRPRPRPALDPRP | 0.357
147 | RRIRVRPPRLPRPRPRPALMPRP | 0.193
148 | RRIRVRPPRLPRPRPRPALSPRP | 0.414
149 | RRIRVRPPRLPRPRPRPANAPRP | -0.0677
150 | RRIRVRPPRLPRPRPRPANLPRP | -0.163

From the supplement of paper PMC9112550, “Optimization of the antimicrobial peptide Bac7 by deep mutational scanning” (BMC Biology, 2022)
